This passage reports binding results from paper PMC6522849.

The test system of this data set is T1, BsrR (Enterococcus faecium NW2), ORF:b1c0129b.
T1 sequence: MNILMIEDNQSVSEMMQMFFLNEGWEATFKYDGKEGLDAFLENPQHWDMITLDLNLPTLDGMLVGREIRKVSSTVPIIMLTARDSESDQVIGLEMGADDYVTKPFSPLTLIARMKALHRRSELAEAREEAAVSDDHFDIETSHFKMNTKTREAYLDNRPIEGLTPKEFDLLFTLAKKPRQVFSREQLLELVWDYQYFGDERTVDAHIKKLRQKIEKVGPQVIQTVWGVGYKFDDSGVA
Nature of the data set: EMSA. A general note: In EMSA bound probe runs differently from free probe, usually more slowly.

Take “AAATAAAACTCCTTTTTTATTGGAATAAGTTTATCTTAACAAAGAATGAACAAAAGACAAACCTTTCGTGAAGAATTCCTGAACATATTGGTTCAGTCAACAATTTAGAGTATACTATAAGAAGAGAATTTAGGAGGGAAAGA (double strand) [bsrX upstream intergenic region, 143 bp]”: the binding entry is listed as “binds”.
